Assay results published in US20110086806A1 (published 2011).
Positions count from the first letter of the chain named. Names may count otherwise.

T1: recombinant human IL-23R/Fc chimera (R&D Systems) (human, UniProt Q5VWK5 24-355)
T1 construct: Bought; also called rhIL23RFc
T1 sequence (looked up): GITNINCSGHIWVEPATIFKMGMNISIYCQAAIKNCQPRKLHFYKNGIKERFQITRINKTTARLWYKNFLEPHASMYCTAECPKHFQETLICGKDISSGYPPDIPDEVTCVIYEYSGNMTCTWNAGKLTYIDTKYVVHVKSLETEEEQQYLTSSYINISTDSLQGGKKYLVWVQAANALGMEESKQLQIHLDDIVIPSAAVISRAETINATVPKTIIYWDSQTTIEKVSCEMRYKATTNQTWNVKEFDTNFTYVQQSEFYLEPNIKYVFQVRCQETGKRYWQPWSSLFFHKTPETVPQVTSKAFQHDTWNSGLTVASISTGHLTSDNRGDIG

B1: 101-80-5H3 ATRIMER complex (designed binder)
chain: EPPTQKPKKIVNAKKDVVNTKMFEELKSRLDTLAQEVALLKEQQALQTVCLKGTKVHMKCFLAFTQTKTFHEASEDCISRGGTLSTPQTGSENDALYEYLRQSVGNEAEIWLGLNGSALTNTWVDMTGARIAYKNWEPPAPYHPMAAGVFGENCAVLSGAANGKWFDKRCRDQLPYICQFGIV
B2: 056-41.B5C ATRIMER complex (designed binder)
chain: EPPTQKPKKIVNAKKDVVNTKMFEELKSRLDTLAQEVALLKEQQALQTVCLKGTKVHMKCFLAFTQTKTFHEASEDCISRGGTLSTPQTGSENDALYEYLRQSVGNEAEIWLGLNGSALTNTWVDMTGARIAYKNWETEITAQPDGGFGYFGENCAVLSGAANGKWFDKRCRDQLPYICQFGIV
modifications: non-covalent homotrimer of the one chain given
notes: not shown: Also the single Ser the vector leaves after the ompA signal
B3: 105-20-1B3 ATRIMER complex (designed binder)
chain: B2 chain
B4: 101-113-6C102 ATRIMER complex (designed binder)
chain: EPPTQKPKKIVNAKKDVVNTKMFEELKSRLDTLAQEVALLKEQQALQTVCLKGTKVHMKCFLAFTQTKTFHEASEDCISRGGTLSTPQTGSENDALYEYLRQSVGNEAEIWLGLNGSNVTQTWVDMTGARIAYKNWEPPPPHHPQGGFGVFGENCAVLSGAANGKWFDKRCRDQLPYICQFGIV
notes: not shown: C-terminal tag
B5: 056-40.A3C ATRIMER complex (designed binder)
chain: B2 chain with L119T, N121A
modifications: Homotrimer of this chain (ATRIMER complex).
notes: not shown: A possible extra N-terminal Ser from the ompA junction is left out
B6: 001-69.4G8 ATRIMER complex (designed binder)
chain: B2 chain with A118R, L119R, T120S, N121G, T122V, Y150V
notes: not shown: C-terminal tag: His/Myc (pANA4) or HA-StrepII (pANA10)
B7: 105-20-2F12 ATRIMER complex (designed binder)
chain: B2 chain with A118K, N121D
modifications: ATRIMER complex: homotrimer of three copies of this chain, joined by the tetranectin coiled coil
notes: not shown: C-terminal tag: Myc/His (pANA4) or HA-StrepII (pANA10)
B8: 001-87.A9E ATRIMER complex (designed binder)
chain: B2 chain with F148L, F151W
modifications: Homotrimer of this chain (ATRIMER complex).
notes: as for B5
B9: 105-08-1A3 ATRIMER complex (designed binder)
chain: B2 chain with A118P, L119R, N121D, F148W, Y150V
modifications: Homotrimer of three identical chains (ATRIMER complex); one chain is given.
notes: as for B6
B10: 056-53.H7B ATRIMER complex (designed binder)
chain: B2 chain with G116A, S117G, A118R, L119M, T120G, N121L, T122V, F148W, Y150V
modifications: non-covalent homotrimer of the one chain given
notes: as for B2
B11: 105-20-2G12 ATRIMER complex (designed binder)
chain: B2 chain with A118P, L119R
B12: 056-53.H7H ATRIMER complex (designed binder)
chain: B2 chain with A118S, L119V, T120S, N121D, T122V
modifications: Homotrimer of this chain (ATRIMER complex).
notes: as for B5
B13: 105-20-1H7 ATRIMER complex (designed binder)
chain: B2 chain with L119G
B14: 105-08-2G10 ATRIMER complex (designed binder)
chain: B2 chain with A118P, N121D
B15: 105-08-2C10 ATRIMER complex (designed binder)
chain: B2 chain with A118L, N121D, Y150V
B16: 105-08-2F6 ATRIMER complex (designed binder)
chain: B2 chain with L119Y
B17: 105-08-2G7 ATRIMER complex (designed binder)
chain: B2 chain with A118P, L119K, N121G
B18: 056-45.F7F ATRIMER complex (designed binder)
chain: B2 chain with L119T, N121D
modifications: Homotrimer of this chain (ATRIMER complex).
notes: as for B5
B19: 105-20-2A3 ATRIMER complex (designed binder)
chain: B2 chain with A118P, L119I
modifications: Homotrimer of three identical chains (ATRIMER complex); one chain is given.
notes: as for B6
B20: 105-08-1D3 ATRIMER complex (designed binder)
chain: B2 chain with A118K, L119V, N121E
B21: 056-53.H1G ATRIMER complex (designed binder)
chain: B2 chain with G116S, S117G, A118H, L119W, T120R, N121A, T122V, Y150V
modifications: Homotrimer of this chain (ATRIMER complex).
notes: as for B5
B22: 105-20-1H1 ATRIMER complex (designed binder)
chain: B2 chain with A118P, F148W
B23: 105-08-1A4 ATRIMER complex (designed binder)
chain: B2 chain with L119V

Biological target: T1, recombinant human IL-23R/Fc chimera …
Experiment: SPR
Description: A Biacore 3000 biosensor (GE Healthcare) was used to evaluate the interaction of human IL-23R and receptor binders. Immobilization of an anti-human IgG Fc antibody (GE Healthcare) to the CM5 chip (GE Healthcare) was performed using standard amine coupling chemistry, and this modified surface was used to capture a recombinant human IL-23R/Fc fusion protein (R&D Systems). A low-density receptor surface, less than 200 RU, was used for all of the analyses. ATRIMER™ polypeptide complex dilutions (1-500 nM) were injected over the IL-23R surface at 30 μl/min and kinetic constants were derived from the sensorgram data using the Biaevaluation software (version 3.1, GE Healthcare). Data collection was 3 minutes for the association and 5 minutes for dissociation. The anti-human IgG surface was regenerated with a 30s pulse of 3M magnesium chloride. All sensorgrams were double-referenced against an activated and blocked flow-cell as well as buffer injections.

Row | Binder | Ka [M⁻¹] | Kd [nM] | koff [s⁻¹] | kon [M⁻¹ s⁻¹]
1 | B1 | 1.55e+08 | 6.46 | 0.000327 | 50500
2 | B2 | 9.78e+08 | 1.02 | 0.000314 | 307000
3 | B3 | 1.31e+09 | 0.764 | 0.00031 | 405000
4 | B4 | 9.62e+08 | 1.04 | 0.000283 | 271000
5 | B5 | 5.7e+08 | 1.75 | 0.000373 | 213000
6 | B6 | 1.35e+08 | 7.42 | 0.000805 | 109000
7 | B7 | 5.41e+08 | 1.85 | 0.000471 | 254000
8 | B8 | 5.21e+08 | 1.92 | 0.00033 | 172000
9 | B9 | 2.11e+09 | 0.473 | 0.000348 | 735000
10 | B10 | 1.8e+09 | 0.557 | 0.00024 | 431000
11 | B11 | 1.52e+09 | 0.658 | 0.000262 | 398000
12 | B12 | 6.65e+08 | 1.5 | 0.000385 | 256000
13 | B13 | 1.34e+09 | 0.744 | 0.000372 | 500000
14 | B14 | 7.58e+08 | 1.32 | 0.000397 | 302000
15 | B15 | 1.63e+09 | 0.612 | 0.000371 | 606000
16 | B16 | 1.53e+09 | 0.653 | 0.000359 | 550000
17 | B17 | 6.99e+08 | 1.43 | 0.000358 | 251000
18 | B18 | 7.92e+08 | 1.26 | 0.000376 | 298000
19 | B19 | 1.32e+09 | 0.759 | 0.000312 | 412000
20 | B20 | 7.58e+08 | 1.32 | 0.000301 | 228000
21 | B21 | 1.95e+08 | 5.13 | 0.000489 | 95200
22 | B22 | 1.17e+09 | 0.857 | 0.00032 | 374000
23 | B23 | 8e+08 | 1.25 | 0.000312 | 250000

Biological target: T1, recombinant human IL-23R/Fc chimera …
Experiment: competition ELISA vs IL-23
Description: Assays were performed generally as follows. Individual wells in Immulon HB2 plates were incubated overnight at 4° C. with 100 μL PBS containing 100 ng of an anti-human IgG Fc (R&D MAB 110 clone 97924). Plates were washed five times with PBS/0.05% Tween 20, and wells were incubated for 1.5 h at RT with 100 μL each of PBS containing 50 ng of recombinant human IL-23R/Fc. […] Competitor was included at a final concentration of 1 μg/mL. After incubation, plates were washed as described and wells were incubated for 40 min at RT with 100 μL each of PBS containing a 1:5000 dilution of streptavidin-HRP conjugate (Pierce catalog no. 21130). After washing, wells were incubated with 100 μL each of TMB (BioFX Lab catalog no. TMBH-1000-0) for up to 30 min at RT. Reactions were stopped with an equal volume of 0.2 M sulfuric acid.
A number of ATRIMER™ polypeptide complexes were tested in competition ELISA more extensively to determine IC50 values.

Row | Binder | IC50 [nM]
24 | B2 | 1.65
25 | B5 | 1.8
26 | B6 | 1.4
27 | B8 | 2.6
28 | B10 | 0.9
29 | B12 | 0.53
30 | B18 | 1.45
31 | B21 | 3.75

Biological target: T1, recombinant human IL-23R/Fc chimera …
Experiment: competition ELISA vs IL-23
Remark: another data set of the same source

Row | Binder | Ratio IC50 to 056-53.H4E IC50
32 | B1 | 11.3
33 | B3 | 1.2
34 | B4 | 2
35 | B7 | 2.8
36 | B9 | 1.1
37 | B11 | 1
38 | B13 | 2.1
39 | B14 | 1.8
40 | B15 | 0.9
41 | B16 | 2.4
42 | B17 | 2.5
43 | B19 | 1.2
44 | B20 | 0.4
45 | B22 | 1.8
46 | B23 | 1.6
